± gives the uncertainty stated by the source.

This data set is described as follows: amyloid nucleation score (Sup35N fusion, yeast selection) (log enrichment); library NNK2; higher = more nucleation; inactive = no reads after selection. An outline of the steps:
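In psi-negative yeast, Sup35N fusions carrying peptides of 20 random codons were induced with 100 μM copper sulfate for 24 hours. The cells then grew 7 days at 30°C on medium lacking adenine and uracil, and plasmid inserts from input and output were Illumina-sequenced, excluding sequences with under 100 input reads. Nucleation score is the DiMSum log enrichment of output over input reads, centred on the mode score of non-aggregating sequences.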
CNFVRSYDCHQVKLSI returned an amyloid nucleation score of -1.18 ± 1.1. Regarding CNILH, the amyloid nucleation score worked out at 1.36 ± 0.3. Then CNIVRSYCLL, with -0.937 ± 0.5; and CNKESFSMI, with -0.791 ± 0.55. The value for CNLCSDP was “inactive”. Turning to CNLSSCGHSFINLSYEDLCQ, the amyloid nucleation score result is “inactive”. The value for CPDISGVSRHRAKRQKNWLY was “inactive”; that for CPMPITRSAVFACTITCSVA was 5.99 ± 0.079; that for CPRLCLMLLPFKTCMIGTRE was 0.57 ± 0.81. Then CPSFMNSFDASRNIWIVPSG, with 3.28 ± 0.058. The value for CPSWFLSGDKCFYRGESSEN was -0.184 ± 0.63; that for CPTFKIKRDMSLTHRLFNIY was -1.64 ± 0.54; that for CQSAASVL was -0.148 ± 0.31. Regarding CQSRY, the amyloid nucleation score was -0.373 ± 1.1. CRASG came in with an amyloid nucleation score of 0.409 ± 0.25. Substance CRLLCVIGLYVDNLGPPLAR showed an amyloid nucleation score of -0.044 ± 0.35. The value for CRLVEAEYSSRKRLQVSLWA was 0.102 ± 0.79; that for CRNQMQGWWYVWMVGVCRGS was “inactive”; that for CRQISGNTNVRLGASSMRII was -0.526 ± 0.55.

For CRRGDLKDDEIYAMHLHRVS, the amyloid nucleation score was -1.12 ± 0.78. As for CRTLSGCYQDCGAVNGVLRV, the amyloid nucleation score was determined as 1.22 ± 0.3.

CRVLGQRRGASTNVSVHIVE displayed an amyloid nucleation score of -0.097 ± 1.1.

The substance CRYEIKLCYDLMQNPLFTRS showed an amyloid nucleation score of -0.522 ± 0.41. Consider CRYRLYYRCEVLEYLSDFTW, for which the amyloid nucleation score was -0.492 ± 0.56. CSAVAALLPILGMELIGTSI yielded an amyloid nucleation score of -0.41 ± 0.55.

In the case of CSEVLRTFGKARHTEAR, the amyloid nucleation score was found to be 0.501 ± 0.2. The substance CSNLSV had an amyloid nucleation score of 0.167 ± 0.28. The value for CSRIHIV was -0.255 ± 1.1. The value for CSTLVRIR was 0.723 ± 0.46; that for CSTVLRGCVLGQYLYGYSSG was -0.258 ± 0.41. With CSVCYFPEGNLFNGE, the amyloid nucleation score entry was “inactive”. In turn, CSWGCNDFRSCLALVMDCHA came in with an amyloid nucleation score of 1.02 ± 0.61. Then CSYFMGLIVILRVKCRYMLK, with -1.18 ± 0.32. As for CTAYNITYMTATSRGMSC, the amyloid nucleation score entry was “inactive”. The value for CTCKRLVLRVVVEWA was 1.82 ± 0.12; that for CTCNLWYTLMCAFHASRLVH was 0.327 ± 0.34; that for CTFTRLRSSAGSGIRQTPRL was 0.048 ± 0.79.

In turn, CTMYLALRGVW displayed an amyloid nucleation score of 4.56 ± 0.056. CTRMRPPYLEHQSCDRLSSR had an amyloid nucleation score of 0.241 ± 0.54. Then CTSCERSLAKRLQGWHIF, with -1.09 ± 0.63; and CTVTK, with 1.45 ± 0.11; and CTYVYESRHQGIGVLASLSN, with -0.784 ± 0.76.

CVAVNLCVAALV yielded an amyloid nucleation score of -0.049 ± 0.76.

CVGSLQLHGVSRRCIRCWGR had an amyloid nucleation score of 1.15 ± 0.4. The substance CVLQNWYSTSTPKSWLRGNV displayed an amyloid nucleation score of 0.678 ± 0.41.

CVNSLALGRVSIVGISSGWW: the amyloid nucleation score was determined as 0.284 ± 0.51. Substance CVVVRSCI had an amyloid nucleation score of -0.342 ± 1.1. Then CWDCKLPHRPGVFMRNNHFK, with -0.015 ± 0.45; and CWGNGGQKRLFVLFSFAY, with 0.063 ± 1.1. The value for CWMFVVHIAIWGGVSLDGIV was 0.208 ± 1.1; that for CWNACSLRLNDGAGDPGWRD was 0.36 ± 0.22; that for CYAGFCN was “inactive”. The value for CYMCWFNIILLQKFKRQGVL was 4.29 ± 0.063. In turn, CYSVFSLY gave an amyloid nucleation score of -0.81 ± 1. For CYTNYIYVLAAMWTSEIRKV, the amyloid nucleation score entry was “inactive”.

DALLNFTRLSITNNVNIGP came in with an amyloid nucleation score of 5.894 ± 0.046. Substance DANDSSWEGG showed an amyloid nucleation score of 0.669 ± 0.74.

Substance DARFLPVVLRKKTDSICYVN had an amyloid nucleation score of -0.177 ± 0.79. Substance DARKNVDRSPSSLSEKVLSL had an amyloid nucleation score of 0.642 ± 0.34.

Substance DCAWNFWFSLVYRLVISGHS came in with an amyloid nucleation score of -0.38 ± 0.6. Turning to DCDMVFFLGIFFKSSGGKGN, the amyloid nucleation score was 2.57 ± 0.083.

In turn, DCFPLLLNRFRPEHYVRWHR showed an amyloid nucleation score of 0.887 ± 0.57.

With DCLLCFFGSHSILVRPILKV, the amyloid nucleation score entry was “inactive”. Then DCLLGNSSPAV, with -0.594 ± 1.1; and DCLLSFVRVRSSPSVRY, with 4.47 ± 0.056; and DCQMRDNASVNIIVRFQYVY, with 5.08 ± 0.082.

For the substance DCRIVREHLPCPSFFRSFSR, the amyloid nucleation score worked out at 0.164 ± 1.1. DCRVGSLSAGRQLSARAAGK displayed an amyloid nucleation score of 0.633 ± 0.41. DCSCFYFF gave an amyloid nucleation score of 2.96 ± 0.08. Then DCSMVIMYFASGRSRALSNR, with 4.48 ± 0.067; and DCVNGVLFDGSPHVYGFLEW, with 0.419 ± 0.32. The substance DDIAVCWNCFVRLILMMWED showed an amyloid nucleation score of 1.57 ± 0.42.

As for DDIFIRKLFQYS, the amyloid nucleation score result was “inactive”. Regarding DDLSMRVVRLRNVTLYHYFG, the amyloid nucleation score was 3.21 ± 0.088. The value for DDMTGDHRPSFRSMIMVGVI was 0.918 ± 0.67; that for DDVMMILGNNTSYVLFNMPC was “inactive”. Take DDWEVRN: the amyloid nucleation score was found to be 0.231 ± 0.31. Turning to DECAVPRSE, the amyloid nucleation score is 0.7 ± 0.51.

DEEVSWRIG: the amyloid nucleation score worked out at 0.196 ± 0.46. For the substance DEGKA, the amyloid nucleation score was -0.507 ± 0.42. The value for DFCYFSFRPLHLRFQNTDWP was 0.007 ± 1.1.

With DFFMTPGTLGIGTLSNISFY, the amyloid nucleation score result is “inactive”.

DFMSSVFCQAVWVHAPRRVR: the amyloid nucleation score was 0.6 ± 0.74. The value for DFNSCRLTVHLRYTSVPCRY was 0.233 ± 0.74; that for DFNVSLSCHEKLMMVSFRWR was -0.373 ± 0.34; that for DFSLGLWRVTDIDYVSNVSL was 0.151 ± 0.8. Then DFTVSHI, with “inactive”; and DGDICLLRYFFLTMILELAI, with -2.02 ± 0.78.

With DGIRVLCLTALPFMWVH, the amyloid nucleation score result is “inactive”.

On to DGNFHNFLLCNNEMFREMDC, for which the amyloid nucleation score is 2.63 ± 0.13. For DGSERIPCLSNYHMLRLTNS, the amyloid nucleation score is -0.001 ± 0.32. The substance DGYIVFSRNAVNIFSVYFTG gave an amyloid nucleation score of 6.212 ± 0.04. In the case of DGYMMGALQNYCNCTRFVLN, the amyloid nucleation score entry is “inactive”. For DHAYYDTSCGIRTPFVMIVR, the amyloid nucleation score entry was “inactive”. Consider DHITVVAIKKEHLVEIIYVY, for which the amyloid nucleation score is -0.904 ± 0.35. With DHVLSFDSIVVWYLRIGGEE, the amyloid nucleation score was -0.656 ± 1.1. The value for DIDGWCTIYMDIVYMKTCPY was 0.262 ± 0.56; that for DIDKGSTEGDVMEGKLVNNV was 0.171 ± 0.2; that for DIHRPQRYISKYSSTREWVG was -0.224 ± 0.32. The value for DIKYCRSFCWLSTIFRTLGP was 0.249 ± 0.37; that for DINKFVAVWCHYLSGKGLLP was -0.359 ± 0.26. The value for DISVLSLQYMS was -0.105 ± 0.8; that for DIWMAINVGAYGVCEFCVSR was 5.88 ± 0.071; that for DIYFGDQNDCLKR was -1.17 ± 0.64.

As for DKYITCVESWWPSILGGEKP, the amyloid nucleation score was found to be 1.87 ± 0.23. Substance DKYSWRKNGCGGWCVTTVVG had an amyloid nucleation score of 0.573 ± 0.3.

As to DLAFNFASWLCRAKFNGSRC, the amyloid nucleation score was found to be 5.04 ± 0.09. The value for DLDIC was -0.2 ± 0.3; that for DLGPLFDCCSVYGGAECCIE was -0.1 ± 0.49; that for DLLHETML was -0.781 ± 1.1. Then DLLRPSGMFFCYGQFYCLKC, with -1.05 ± 0.39; and DLMDVEGLSGPPLRSMQVLK, with 5.003 ± 0.05. In the case of DLPYSSVIRKYMSKMWLHMN, the amyloid nucleation score is 0.218 ± 0.36. DLRLTSHIRSFIFAGVPVLF showed an amyloid nucleation score of -1.65 ± 0.49.

On to DLSLESLRSNEVEAVNMFVF, for which the amyloid nucleation score result was “inactive”.

DLVNV gave an amyloid nucleation score of 1.8 ± 0.38.

Regarding DLYIS, the amyloid nucleation score is 0.13 ± 0.8. The value for DMAKGVLRSLFGTA was -0.154 ± 0.36; that for DMLPLMSAVPHSFSMLVWGE was -0.109 ± 0.36; that for DMRLKGLTRVFTGDNRFSLL was -0.064 ± 0.54. DMRTIGEHCW displayed an amyloid nucleation score of 1.02 ± 0.52. The value for DMVDLCSKDMSRALFGPNMS was 5.39 ± 0.059. Then DMVVMVYALLGPLQFECNK, with 0.888 ± 0.15; and DNDCHCSWENISYLWGHLRG, with “inactive”; and DNELFPLYWNR, with 0.309 ± 0.15.

Substance DNGNTMDES returned an amyloid nucleation score of 0.232 ± 0.55. DNLNRAKFDLELVESGFWVV: the amyloid nucleation score result is “inactive”. Then DNRKDSFMLHSFGTKVSGHK, with 0.918 ± 0.37. Then DNSAGDLYNSSVTGSPVMQL, with -0.447 ± 0.22.

DNSFMSLYLVRIHFTYPVAA came in with an amyloid nucleation score of 3.69 ± 0.082. The value for DNTELFKNDFKFKLYLSNKI was 1.72 ± 0.24. In turn, DPFSHGEASEWAHLIVSTCT gave an amyloid nucleation score of 0.408 ± 0.22. The value for DPQRVFFWLPYMNLYQHEPF was 0.025 ± 1.1; that for DPTGIGWIKEQSLVCCGGVS was 2.84 ± 0.081. In turn, DQCPFFSVWWSSLDYSWM yielded an amyloid nucleation score of -0.094 ± 1. The value for DQFSGNACSIIVLVSALACF was 3.01 ± 0.17; that for DQIEIISLKNCTVG was “inactive”; that for DQLVLELHWTESILSYVVMP was 0.816 ± 0.48. The value for DQSFLF was -0.039 ± 0.39.
